The results in this text go back to article PMC2915561 (Biochemistry, 2010).

Series [1] deals with the molecule itself. The series is described as follows: SEC.
Series [2] deals with the molecule itself. The series is described as follows: SEC. The source holds these as a separate data set.
The series “SAXS” concerns the molecule itself. Briefly: SAXS.

Broadly, the stoichiometry N is a count of units in the complex or per binding partner.

Where a chain is given by its changes, count along the chain named. Names may count otherwise.

B1: LovK (1–138) (domain or fragment, Caulobacter crescentus, UniProt Q9ABE3 1-138, looked up)
chain: MEDYSESRRAGERLAAGHGVDDPFAAAISATRMAMIVADATQPDIPIIFANDAFLRLTGYARDEVIGRNCRFLQGPDTDPKAIQAVRDALAAGEDVAVDLLNYRKDGSPFWNALNMSPVRNDAGQLVYFFGSQVDVTD
On to B1, for which, in the series “SEC [1]”, the “stoichiometry N” value is 2.

B2: LovK (1–163) (domain or fragment, Caulobacter crescentus, UniProt Q9ABE3 1-163, looked up)
chain: MEDYSESRRAGERLAAGHGVDDPFAAAISATRMAMIVADATQPDIPIIFANDAFLRLTGYARDEVIGRNCRFLQGPDTDPKAIQAVRDALAAGEDVAVDLLNYRKDGSPFWNALNMSPVRNDAGQLVYFFGSQVDVTDKKVVELRARDHSDGLQQMVEERTRE
On to B2, for which the “stoichiometry N” value in “SEC [1]” worked out at 2.

B3: LovK (25–138), isolated LOV core (domain or fragment, Caulobacter crescentus, UniProt Q9ABE3 25-138, looked up)
chain: AAAISATRMAMIVADATQPDIPIIFANDAFLRLTGYARDEVIGRNCRFLQGPDTDPKAIQAVRDALAAGEDVAVDLLNYRKDGSPFWNALNMSPVRNDAGQLVYFFGSQVDVTD
Consider B3, for which the “stoichiometry N” value in “SEC [1]” amounted to 2.

B4: LovK (25–163) (domain or fragment, Caulobacter crescentus, UniProt Q9ABE3 25-163, looked up)
chain: AAAISATRMAMIVADATQPDIPIIFANDAFLRLTGYARDEVIGRNCRFLQGPDTDPKAIQAVRDALAAGEDVAVDLLNYRKDGSPFWNALNMSPVRNDAGQLVYFFGSQVDVTDKKVVELRARDHSDGLQQMVEERTRE
As to B4, in the series “SEC [1]”, the “stoichiometry N” value is 2.

B5: LovK (1–368), full-length Caulobacter crescentus LOV-histidine kinase (enzyme, UniProt Q9ABE3 1-368, looked up)
chain: MEDYSESRRAGERLAAGHGVDDPFAAAISATRMAMIVADATQPDIPIIFANDAFLRLTGYARDEVIGRNCRFLQGPDTDPKAIQAVRDALAAGEDVAVDLLNYRKDGSPFWNALNMSPVRNDAGQLVYFFGSQVDVTDKKVVELRARDHSDGLQQMVEERTRELTEALKQKTALLHEVDHRVKNNLQLISSLLLLQNRRVPDPAVKASLRGMLGRVNAIATVHRRLFQSEDVERFDVSAFIRDMVADLMGSAMRDDIRVELDLERVEIPAAKAAPLALVVNELLTNALRHGFPEGRGGRIFVGLSRLNGDFRIEITDDGVGQDRETRASGFGLTIVQLLCQQLKAKWETTDAEPGTRVVVLLPINGTQ
With B5, in “SEC [2]”, the “stoichiometry N” value is 2.

B6: LovK C70A (1–368), full-length "blind" mutant (enzyme, Caulobacter crescentus, UniProt Q9ABE3 1-368, looked up)
chain: B5 chain with C70A
On to B6, for which the “stoichiometry N” value in “SAXS” stood at 2.
